Measured values taken from patent publication US20190322750A1.

Molecular target: T1, ITGA6
T1 sequence (P23229 whole entry, species assumed, looked up): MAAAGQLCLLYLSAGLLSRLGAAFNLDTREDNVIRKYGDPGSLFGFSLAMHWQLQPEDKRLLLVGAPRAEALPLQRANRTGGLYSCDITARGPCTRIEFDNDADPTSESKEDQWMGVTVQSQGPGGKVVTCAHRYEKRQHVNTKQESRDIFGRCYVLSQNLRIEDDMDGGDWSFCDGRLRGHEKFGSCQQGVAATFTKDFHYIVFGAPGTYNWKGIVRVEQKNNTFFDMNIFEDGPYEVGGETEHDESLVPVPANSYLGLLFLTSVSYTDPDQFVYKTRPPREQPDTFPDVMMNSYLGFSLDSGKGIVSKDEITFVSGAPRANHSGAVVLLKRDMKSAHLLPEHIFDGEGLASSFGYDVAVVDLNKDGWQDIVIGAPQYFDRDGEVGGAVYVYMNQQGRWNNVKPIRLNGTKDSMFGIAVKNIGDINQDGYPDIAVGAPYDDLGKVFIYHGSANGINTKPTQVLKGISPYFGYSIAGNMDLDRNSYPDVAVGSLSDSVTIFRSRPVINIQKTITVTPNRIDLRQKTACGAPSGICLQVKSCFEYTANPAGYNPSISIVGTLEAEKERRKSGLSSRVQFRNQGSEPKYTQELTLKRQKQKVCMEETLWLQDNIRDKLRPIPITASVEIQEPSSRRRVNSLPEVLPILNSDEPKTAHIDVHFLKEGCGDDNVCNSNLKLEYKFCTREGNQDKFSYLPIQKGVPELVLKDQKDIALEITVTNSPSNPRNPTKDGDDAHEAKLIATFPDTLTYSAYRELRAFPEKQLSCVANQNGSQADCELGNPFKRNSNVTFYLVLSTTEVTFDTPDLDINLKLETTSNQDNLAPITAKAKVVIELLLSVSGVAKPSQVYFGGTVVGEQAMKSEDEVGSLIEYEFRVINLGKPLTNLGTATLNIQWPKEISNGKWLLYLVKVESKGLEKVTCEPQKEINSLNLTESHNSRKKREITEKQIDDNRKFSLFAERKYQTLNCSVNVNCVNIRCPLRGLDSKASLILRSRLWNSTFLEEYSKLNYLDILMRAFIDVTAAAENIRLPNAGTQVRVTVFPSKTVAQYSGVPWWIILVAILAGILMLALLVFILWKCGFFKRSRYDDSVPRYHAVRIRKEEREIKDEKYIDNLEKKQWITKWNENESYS
Assay: ELISA on coated antigen, column ITGA6

Sequence of Avelumab (antibody) (VH): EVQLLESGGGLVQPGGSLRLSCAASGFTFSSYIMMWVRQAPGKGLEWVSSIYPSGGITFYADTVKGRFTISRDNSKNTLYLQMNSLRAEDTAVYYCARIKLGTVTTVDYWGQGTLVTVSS
Sequence of Avelumab (antibody) (VL): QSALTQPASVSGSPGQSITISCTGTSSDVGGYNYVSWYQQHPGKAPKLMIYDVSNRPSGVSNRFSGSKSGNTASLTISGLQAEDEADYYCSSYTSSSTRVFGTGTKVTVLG

Substance Avelumab (antibody) has an absorbance at 490 nm of 0.6.
